Measured values published in patent US20150307603A1 (MODIQUEST B V, published 2015).
Non-standard residues stand in square brackets, D forms with d. No end group written: not given here. Cit = NC(=O)NCCC[C@H](N)C(=O)O

What was measured:
[1] = biological target: T1, peptide no. 10 (human histone 2A) (human, also: biotin-labelled); experiment: ELISA, Ab 0.4 ug/well
T1 construct: also called peptide 10
T1 peptide: TRIIP[Cit]HLQLAI
Method: (§1) Biotin and citrulline-containing peptides derived from histone 2A were immobilized on NEUTRAVIDIN®-coated 96-well ELISA plates (0.3 μg/well). CFC-1 and CFC-0 were coated at the same concentration and served as positive and negative controls, respectively, for specific anti-citrulline reactivity and as coating controls. Non-coated wells were used to test for aspecific binding of the antibodies. […] Detection of bound anti-citrulline antibodies was performed by incubating the wells with rabbit anti-human HRP (1:2000) for 1 hour at RT followed by incubation with TMB substrate. The resulting OD (y-axis) is a measure for antibody binding.

[2] = biological target: T2, peptide no. 5 (human histone 2A) (human, also: biotin-labelled); experiment: ELISA, Ab 0.4 ug/well
T2 construct: also called peptide 5
T2 peptide: VGRVH[Cit]LLRKGN
Method: as §1

[3] = biological target: T3, peptide no. 8 (human histone 2A) (human, also: biotin-labelled); experiment: ELISA, Ab 0.4 ug/well
T3 construct: also called peptide 8
T3 peptide: AGNAA[Cit]DNKKTR
Method: as §1

[4] = biological target: T4, peptide no. 9 (human histone 2A) (human, also: biotin-labelled); experiment: ELISA, Ab 0.4 ug/well
T4 construct: also called peptide 9
T4 peptide: DNKKT[Cit]IIPRHL
Method: as §1

[5] = biological target: T5, peptide no. 4 (human histone 2A) (human, also: biotin-labelled); experiment: ELISA, Ab 0.4 ug/well
T5 construct: also called peptide 4
T5 peptide: QFPVG[Cit]VHRLLR
Method: as §1

[6] = biological target: T6, peptide no. 11 (human histone 2A) (human, also: biotin-labelled); experiment: ELISA, Ab 0.4 ug/well
T6 construct: also called peptide 11
T6 peptide: LQLAI[Cit]NDEELN
Method: as §1

[7] = biological target: T7, peptide no. 2 (human histone 2A) (human, also: biotin-labelled); experiment: ELISA, Ab 0.4 ug/well
T7 construct: also called peptide 2
T7 peptide: AKAKS[Cit]SSRAGL
Method: as §1

[8] = biological target: T8, peptide no. 3 (human histone 2A) (human, also: biotin-labelled); experiment: ELISA, Ab 0.4 ug/well
T8 construct: also called peptide 3
T8 peptide: KSRSS[Cit]AGLQFP
Method: as §1

[9] = biological target: T9, peptide no. 12 (human histone 2A) (human, also: biotin-labelled); experiment: ELISA, Ab 0.4 ug/well
T9 construct: also called peptide 12
T9 peptide: NKLLG[Cit]VTIAQG
Method: as §1

[10] = biological target: T10, peptide no. 7 (human histone 2A) (human, also: biotin-labelled); experiment: ELISA, Ab 0.4 ug/well
T10 construct: also called peptide 7
T10 peptide: GNYSE[Cit]VGAGAP
Method: as §1

[11] = biological target: T11, CFC-1; experiment: ELISA, Ab 0.4 ug/well
T11 construct: Positive control for anti-citrulline reactivity; also called cfc1 XG; Cfc1-peptide
Method: as §1

[12] = biological target: T12, peptide no. 1 (human histone 2A) (human, also: biotin-labelled); experiment: ELISA, Ab 0.4 ug/well
T12 construct: also called peptide 1; AAASGXGKQGGK
T12 peptide: AAASG[Cit]GKQGGK
Method: as §1

[13] = biological target: T13, peptide no. 6 (human histone 2A) (human, also: biotin-labelled); experiment: ELISA, Ab 0.4 ug/well
T13 construct: also called peptide 6
T13 peptide: VHRLL[Cit]KGNYSE
Method: as §1

[14] = biological target: T14, huPAD4-deiminated human recombinant histone 3 (human); experiment: ELISA, Ab 2 ug/well
T14 construct: also called H3/p4
From the text: (§2) The resulting OD (y-axis) is a measure for antibody binding. H1-recombinant histone 1; H1/p2-huPAD2 recombinant histone 1; H1/p4-huPAD4 recombinant histone 1, and so forth (x-axis).

[15] = biological target: T15, human recombinant histone 2A (human); experiment: ELISA, Ab 2 ug/well
T15 construct: Non-deiminated; also called H2A
From the text: as §2

[16] = biological target: T16, huPAD2-deiminated human recombinant histone 2A (human); experiment: ELISA, Ab 2 ug/well
T16 construct: also called H2A/p2; histone 2A/p2
From the text: as §2

[17] = biological target: T17, human recombinant histone 4 (human, UniProt P62805 2-103); experiment: ELISA, Ab 2 ug/well
From the text: as §2

[18] = biological target: T18, huPAD4-deiminated human recombinant histone 2A (human); experiment: ELISA, Ab 2 ug/well
T18 construct: also called H2A/p4; histone 2A/p4
From the text: as §2

[19] = biological target: T11, CFC-1; experiment: ELISA, Ab 2 ug/well
From the text: as §2

[20] = biological target: T19, huPAD2-deiminated human recombinant histone 2B (human); experiment: ELISA, Ab 2 ug/well
T19 construct: also called H2B/p2
From the text: as §2

[21] = biological target: T20, huPAD2-deiminated human recombinant histone 3 (human); experiment: ELISA, Ab 2 ug/well
T20 construct: also called H3/p2; histone 3/p2
From the text: as §2

[22] = biological target: T21, huPAD4-deiminated human recombinant histone 2B (human); experiment: ELISA, Ab 2 ug/well
T21 construct: also called H2B/p4
From the text: as §2

[23] = biological target: T22, human recombinant histone 2B (human); experiment: ELISA, Ab 2 ug/well
T22 construct: Non-deiminated; also called H2B
From the text: as §2

[24] = biological target: T15, human recombinant histone 2A; experiment: ELISA, Ab 0.00064 ug/well
From the text: as §2

[25] = biological target: T16, huPAD2-deiminated human recombinant …; experiment: ELISA, Ab 0.00064 ug/well
From the text: as §2

[26] = biological target: T17, human recombinant histone 4; experiment: ELISA, Ab 0.00064 ug/well
From the text: as §2

[27] = biological target: T18, huPAD4-deiminated human recombinant …; experiment: ELISA, Ab 0.00064 ug/well
From the text: as §2

[28] = biological target: T11, CFC-1; experiment: ELISA, Ab 0.00064 ug/well
From the text: as §2

[29] = biological target: T19, huPAD2-deiminated human recombinant …; experiment: ELISA, Ab 0.00064 ug/well
From the text: as §2

[30] = biological target: T21, huPAD4-deiminated human recombinant …; experiment: ELISA, Ab 0.00064 ug/well
From the text: as §2

[31] = biological target: T22, human recombinant histone 2B; experiment: ELISA, Ab 0.00064 ug/well
From the text: as §2

[32] = biological target: T16, huPAD2-deiminated human recombinant …; experiment: ELISA, Ab 0.4 ug/well
From the text: as §2

[33] = biological target: T19, huPAD2-deiminated human recombinant …; experiment: ELISA, Ab 0.4 ug/well
From the text: as §2

[34] = biological target: T20, huPAD2-deiminated human recombinant …; experiment: ELISA, Ab 0.4 ug/well
From the text: as §2

B1: RhmAb2.102 (antibody, human IgG1, lambda)
heavy: not shown
light: QSVLTQPPSMSAAPGQKVTISCSGSSSNIGNNYVSWYQQVPGTAPKLLIYDDNKRPSGIPGRFSGSKSATSATLGITGLQAGDEADYYCGSWDDNLSVVLFGGGTKLTVLGQPKAAPSVTLFPPSSEELQANKATLVCLISDFYPGAVTVAWKADSSPVKAGVETTTPSKQSNNKYAASSYLSLTPEQWKSHRSYSCQVTHEGSTVEKTVAPTECS
notes: Human IgG1 lambda; also called Rhm2.102
OD [1]: 0.051 OD450
OD [2]: 0.082 OD450
OD [3]: 0.061 OD450
OD [4]: 0.057 OD450
OD [5]: 0.564 OD450
OD [6]: 0.064 OD450
OD [7]: 0.136 OD450
OD [8]: 0.154 OD450
OD [9]: 0.061 OD450
OD [10]: 0.064 OD450
OD [11]: 3.06 OD450
OD [12]: 2.8 OD450
OD [13]: 0.333 OD450
OD [14]: 0.439 OD450
OD [15]: 0.115 OD450
OD [16]: 3.18 OD450
OD [17]: 0.208 OD450
OD [18]: 3.13 OD450
OD [19]: 3.38 OD450
OD [20]: 0.086 OD450
OD [21]: 1.94 OD450
OD [22]: 0.069 OD450
OD [23]: 0.076 OD450
OD [24]: 0.057 OD450
OD [25]: 0.077 OD450
OD [26]: 0.06 OD450
OD [27]: 0.075 OD450
OD [28]: 0.077 OD450
OD [29]: 0.052 OD450
OD [30]: 0.055 OD450
OD [31]: 0.052 OD450
OD [32]: 3.08 OD450
OD [33]: 0.06 OD450
OD [34]: 1.18 OD450
